This is an account of results in the supplement of paper PMC10567573.

The series is described as follows: protein stability index of a GFP-peptide fusion (GPS, HEK-293T) (PSI 1-6); higher = more stable.
Where [1] appears, read: treatment: DMSO, c terminus: a fixed tail appended.
Where [2] appears, read: treatment: MLN4924 1 uM, 8 h, c terminus: a fixed tail appended.
Where [3] appears, read: treatment: DMSO, c terminus: native.
Where [4] appears, read: treatment: MLN4924 1 uM, 8 h, c terminus: native.

± gives the standard deviation.
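Also: 24-mer peptide tiles fused after GFP, lentivirally expressed, FACS-sorted into six equal bins by GFP/DsRed ratio, decoded by Illumina sequencing, PSI is the read-weighted mean bin number.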

Consider MEAMAASTSLPDPGDFDRNVPRIC [VDR], for which the protein stability index reads like this: under setting [1], 4.53 ± 0.11; under setting [2], 4.53 ± 0.19.

On to DLSKPPCRKAKEIRKERKRLKLMQ [ATE1], for which the protein stability index under setting [1] was found to be 3.55 ± 0.13 and the protein stability index under setting [2] amounted to 3.64 ± 0.35.

As for ISSVLAGGSCRAPSTYGGGLSVSS [KRT16], the protein stability index by setting is: under setting [1], 2.38 ± 0.33; under setting [2], 2.27 ± 0.27.

As to PLSPPPINYNGIFSLKQEETLDYG [NEUROD6], the protein stability index worked out at 4.63 ± 0.38 under setting [1] and 4.36 ± 0.37 under setting [2].

As to SSCNGPGQTTGHPYYLRSFLVVLK [FAN1], the protein stability index turned out to be 2.21 ± 0.47 under setting [1] and 2.51 ± 0.47 under setting [2].

KFKGWVSYSTSEQAELSYKKVSEG [DLC1]: the protein stability index came to 3.52 ± 0.22 under setting [1] and 3.54 ± 0.39 under setting [2].

Consider DNAEAAFSDDEEDLNSKGKKREFR [INTS3], for which the protein stability index is, setting by setting: under setting [1], 5.51 ± 0.16; under setting [2], 5.47 ± 0.2.

With VLKTSRSTPLSPAYISLVEEEDQH [KLHL13], the protein stability index runs as follows: under setting [1], 4.77 ± 0.13; under setting [2], 4.91 ± 0.17.

Turning to YPPQMGEEYSQIIYSTKLYRFFKY [BTBD10], the protein stability index is, setting by setting: under setting [1], 2.88 ± 0.71; under setting [2], 2.73 ± 0.83.

Sequence EFFRESVNRFGTYPALASKNGKKW [ACSBG2] showed a protein stability index under setting [1] of 2.87 ± 0.45 and a protein stability index under setting [2] of 3.2 ± 0.28.

In the case of GCVSRCWEVQVSPTCPVCKDRASP [TRIM35], the protein stability index was 4.04 ± 0.28 under setting [1] and 4.13 ± 0.44 under setting [2].

Turning to REMVMYSITVAFWLLNSWLWFRR [MFF], the protein stability index is 2.27 ± 0.96 under setting [3] and 2.48 ± 0.86 under setting [4].

For the sequence KRQVTHFQFLSWPDYGVPSSAASL [PTPN9], the protein stability index by setting is: under setting [1], 2.21 ± 0.35; under setting [2], 2.38 ± 0.18.

On to DPLPAAAVGAAAEAEADEEADPPA [SNX8], for which the protein stability index is 5.59 ± 0.3 under setting [1] and 5.71 ± 0.14 under setting [2].

Regarding ISSSSFGAEPSAPGGGGSPGACPA [RTN3], the protein stability index is, setting by setting: under setting [1], 4.72 ± 0.51; under setting [2], 4.97 ± 0.089.

Turning to SKAVFLWNMDKYTMIRKLEGHHHD [WSB1], the protein stability index under setting [1] came to 2.24 ± 0.16 and the protein stability index under setting [2] stood at 2.24 ± 0.33.

Regarding EIIELLILSGARVNAKDNMWLTPL [ANKRD44], the protein stability index is, setting by setting: under setting [1], 3.16 ± 0.2; under setting [2], 3.3 ± 0.72.

Take LEQFVTRFLLKETLNQLQSLQNSL [NECAB1]: the protein stability index is, setting by setting: under setting [1], 2.87 ± 1.3; under setting [2], 2.76 ± 0.27.

Turning to CSSFMAPPVTDLGELRRRPGDMKT [CPOX], the protein stability index was 3.43 ± 0.3 under setting [1] and 3.31 ± 0.48 under setting [2].

Consider PRGARCSNGFPERDPPRPGPSRPA [GCH1], for which the protein stability index came to 4.71 ± 0.064 under setting [1] and 4.47 ± 0.38 under setting [2].

Take TDFYLIFNDVAKFLKQGDSADETT [CMTM3]: the protein stability index reads like this: under setting [1], 2.75 ± 0.31; under setting [2], 2.6 ± 0.33.

For the sequence AAMFGGSFVESANSEVYLPNINKI [RHOBTB1], the protein stability index is, setting by setting: under setting [1], 2.93 ± 0.23; under setting [2], 2.93 ± 0.18.

As for VKRKKNVLRLCCKKLKIFAMPMQD [PRAME], the protein stability index reads like this: under setting [1], 2.29 ± 0.37; under setting [2], 2.2 ± 0.15.

For the sequence AMEVNTSASEILYSAPPGDPLSTN [NFE2L1], the protein stability index stood at 4.45 ± 0.27 under setting [1] and 4.55 ± 0.23 under setting [2].

As for CLLSSNSRSLLTGGYNLASVSVWD [TLE6], the protein stability index amounted to 2.4 ± 0.38 under setting [1] and 2.18 ± 0.18 under setting [2].

Regarding LEKGLEPEPQVPGPAHGPAQEEPW [ZNF232], the protein stability index by setting is: under setting [1], 5.35 ± 0.46; under setting [2], 5.35 ± 0.25.

For the sequence NSAEACQYVITHAKVNILLVENDQ [ACSBG2], the protein stability index is, setting by setting: under setting [1], 2.18 ± 0.52; under setting [2], 2.62 ± 0.25.

Consider LMLELKSLQEEPVEGFRITLVDES [UBE2R2], for which the protein stability index was 2.6 ± 0.39 under setting [1] and 2.77 ± 0.17 under setting [2].

For the sequence SNCISGVCSVRGGEGRSRGSANDY [KRT71], the protein stability index came out at 3.93 ± 0.36 under setting [1] and 4.23 ± 0.084 under setting [2].

As for MAAGSEPESVEASPVVVEKSNSYP [KMT2E], the protein stability index runs as follows: under setting [1], 5.3 ± 0.11; under setting [2], 5.19 ± 0.24.

As to KIKDEVHPEVKCVGSVALTALVTV [C8orf76], the protein stability index under setting [1] came out at 2.61 ± 0.26 and the protein stability index under setting [2] was found to be 2.11 ± 0.85.

On to EAEDQEEKEDAEKENIEKDEDDVD [SRPK2], for which the protein stability index by setting is: under setting [1], 5.66 ± 0.32; under setting [2], 5.79 ± 0.2.

With HWACKRNHGQVVSYLLKSGADKEI [ANKRD40], the protein stability index is, setting by setting: under setting [1], 2.59 ± 0.24; under setting [2], 2.66 ± 0.28.

Turning to QRGQEPLGPGALHFDLRDDDDAEE [TCF25], the protein stability index under setting [1] amounted to 5.36 ± 0.39 and the protein stability index under setting [2] came to 5.53 ± 0.33.

Consider GLNLGKKISVPRDVMLEELSLLTN [MYOZ1], for which the protein stability index runs as follows: under setting [1], 2.72 ± 0.41; under setting [2], 3.1 ± 0.29.

Turning to AAAIIVYDITKEETFSTLKNWVKE [RAB22A], the protein stability index was 2.67 ± 1.1 under setting [1] and 1.95 ± 0.86 under setting [2].

ASTPTPDDKLFQKLAKVYSYAHGW [CPN1]: the protein stability index runs as follows: under setting [1], 2.38 ± 0.14; under setting [2], 2.33 ± 0.26.

For YCSIKCQQEHWHAEHKRTCRRKR [ZMYND11], the protein stability index was determined as 2.92 ± 0.61 under setting [3] and 3.51 ± 0.87 under setting [4].

Take APWLSLFPPEGNMEDKEMTGPQLP [ZNF263]: the protein stability index was found to be 4.27 ± 0.27 under setting [1] and 4.75 ± 0.28 under setting [2].

Consider ILVLKTDSQDLVASFRVTTGTSNT [RBBP5], for which the protein stability index under setting [1] was 2.2 ± 0.41 and the protein stability index under setting [2] worked out at 2.36 ± 0.53.

On to HQHEEIQNVRNHIHSCFSDVTCFL [ATL3], for which the protein stability index runs as follows: under setting [1], 2.26 ± 0.15; under setting [2], 2.26 ± 0.13.

Turning to SQDFVGEKLGSGEPSHSVKVHTVP [ATE1], the protein stability index by setting is: under setting [1], 4.78 ± 0.17; under setting [2], 4.83 ± 0.26.

For the sequence ITEEKVCMVCKKKIGNSAFARYPN [VPS39], the protein stability index reads like this: under setting [1], 2.73 ± 0.31; under setting [2], 3.43 ± 0.53.

With IRSFGHFIARLQGSILQFNPEVGI [SMG5], the protein stability index stood at 2.45 ± 0.27 under setting [1] and 2.35 ± 0.25 under setting [2].

Turning to FGNSEKPETMTCRLSNNQRYLFLD [ZFYVE21], the protein stability index came to 2.44 ± 0.42 under setting [1] and 2.1 ± 0.54 under setting [2].

PGQPLPGASVRGLHPVQKVILNYP [TRAF3IP2]: the protein stability index runs as follows: under setting [1], 3.55 ± 0.36; under setting [2], 3.45 ± 0.52.

Take YLYYDPDYSFLSLGVYSALREIAF [ATE1]: the protein stability index runs as follows: under setting [1], 2.92 ± 0.2; under setting [2], 2.67 ± 0.24.

LQKKLDNLQCLYCEKTFRDKNTLK [ZNF277]: the protein stability index was 2.64 ± 0.25 under setting [1] and 2.86 ± 0.3 under setting [2].

As to TYAMGHLIQRKKVHVFGDELSLVT [TNFSF13B], the protein stability index under setting [1] was determined as 2.32 ± 0.3 and the protein stability index under setting [2] amounted to 2.42 ± 0.21.

Take TAIRQLTEPSGRVAKKTPTKRSTL [C2CD2L]: the protein stability index runs as follows: under setting [1], 4.37 ± 0.15; under setting [2], 4.44 ± 0.084.

For FTRNEFNLESKSTIGVEFATRSIQ [RAB11A], the protein stability index came out at 2.97 ± 0.3 under setting [1] and 3.2 ± 0.21 under setting [2].

As for YISLLLRAEPYPTSRFGSQCMQPN [NR2F2], the protein stability index under setting [1] was found to be 2.55 ± 0.5 and the protein stability index under setting [2] stood at 2.43 ± 0.39.

VPQLVTGRCATRAFHRKSHSLDLN [RNF180]: the protein stability index reads like this: under setting [1], 2.35 ± 0.2; under setting [2], 2.6 ± 0.41.

Regarding ARMLFSAVEWARNIPFFPDLQITD [NR2F2], the protein stability index by setting is: under setting [1], 2.1 ± 0.21; under setting [2], 2.09 ± 0.28.

Consider EEMRELRRKIRELQLRYSLRILIG [BEX5], for which the protein stability index reads like this: under setting [1], 2.76 ± 0.75; under setting [2], 2.5 ± 0.51.

With SGACGAFVHGLEDEMYEVRIAAVE [INTS4], the protein stability index reads like this: under setting [1], 2.71 ± 0.46; under setting [2], 2.73 ± 0.5.

As to RPGQAPIGNPPVGPIGGMMPPQPG [ZNF207], the protein stability index was 4.14 ± 0.22 under setting [1] and 4.28 ± 0.38 under setting [2].

SALGPNVTKITLESFLAWKKRKRQ [ZC3H15]: the protein stability index runs as follows: under setting [1], 2.92 ± 0.14; under setting [2], 3.14 ± 0.28.

Turning to TAPLTELLHSRNEGVATYAAAVLF [CTNNB1], the protein stability index was 2.25 ± 0.46 under setting [1] and 2.36 ± 0.34 under setting [2].

DSFVCQCSEGFLINEDLKTCSRVD [MATN2] had a protein stability index under setting [1] of 3.57 ± 0.38 and a protein stability index under setting [2] of 3.9 ± 0.45.

Take REAGFHQYEVSNFARNGALSTHNW [RSAD1]: the protein stability index worked out at 2.97 ± 0.28 under setting [1] and 3.08 ± 0.2 under setting [2].

For MSNHTRERVTVAKLTLENFYSNLI [STK38L], the protein stability index is, setting by setting: under setting [1], 2.21 ± 0.16; under setting [2], 2.31 ± 0.31.

For the sequence GAQGSGGGSTSAHYAVNSQFTMGG [CARM1], the protein stability index runs as follows: under setting [1], 3.92 ± 0.34; under setting [2], 4.23 ± 0.2.

Regarding EKQADFLDKQMSRDEHRARAMKIP [NFE2L1], the protein stability index runs as follows: under setting [1], 4.46 ± 0.16; under setting [2], 4.58 ± 0.12.

On to AKDLRAPPEQGKIFIARRSLLDEL [SOAT1], for which the protein stability index was 3.23 ± 0.37 under setting [1] and 3.15 ± 0.33 under setting [2].

For the sequence KEDLIIPHHHSFYDFIVTKARGKS [FAM50A], the protein stability index was determined as 3.4 ± 0.095 under setting [1] and 3.73 ± 0.16 under setting [2].

Regarding SNLETIFRIIDSDHSGFISLDEFR [PPEF2], the protein stability index runs as follows: under setting [1], 2.52 ± 0.24; under setting [2], 2.73 ± 0.36.

QLMTSQFISVFSNLLESKADGIEV [ZER1] displayed a protein stability index under setting [1] of 2.89 ± 0.62 and a protein stability index under setting [2] of 2.5 ± 0.54.

Sequence LRPQRTKQYVLLSILLCLLASGLV [TMEM106C] yielded a protein stability index under setting [1] of 3.11 ± 0.38 and a protein stability index under setting [2] of 2.9 ± 0.26.

In the case of GARQQQVTTYLHKDYNNLWIIKKH [POMT2], the protein stability index under setting [1] turned out to be 2.49 ± 0.27 and the protein stability index under setting [2] amounted to 2.58 ± 0.35.

TLDSYEDKQKLKRTEIISRSWFPS [YJU2B] returned a protein stability index under setting [1] of 3.14 ± 0.12 and a protein stability index under setting [2] of 3.24 ± 0.29.

Consider GKDQGINIRQKVKELVEFAQDDDR [CLINT1], for which the protein stability index is, setting by setting: under setting [1], 5.15 ± 0.42; under setting [2], 4.91 ± 0.28.
